Data: a protein production outcome set (Wang et al. 2014)

Experiment: label from the status in PepcDB records
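Further: failed if final PepcDB status was selected cloned or expressed and not failed if soluble or beyond.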

Sequence | protein production
MVMPESHIHNIPMEQCVLVALMTFALSYELIAQDLDEGCFYPERHKQIYNAIVELANENQPYDVVMVEQRLKSKNLLHVLGGEQYLKIMLAEAPSSFHSMEPYITQLKKLKAHRQVEWLGQRISSMAQDTTQPDVFAEAENILGQVDNQEQSDQGMSFEAALDMALTEMIEKAEAKDKQQFTGVKFNLKHLDELLGTVQKGHFCVVGGRPGSGKSTLAQMLALDTASSFGKGVLFISAEMDQSTLANRMISALGLIPYHNIHNAELYNGLMKDYADAKAAYQRLPIWIQPKQKPSLSEVRSYARRAKRRYKELGCIIVDYLQLLRDPSKKDRFQEVSSISRELKSMAKEFECPVIALVQLNREAEKGKRPKASDIKESGQIEQDADQIILVNPLTDPEDSTKPMGITELIVVKNRHGKRGAVRVLDYLETCRFRSVEEQAEP | failed
MVMSIEASCHCGETVFEVTEAPSSVTRCTCSLCAKRGSLWAYYKPAQFRLLSPPENVTTYLWGSRTVKHHFCASCGCGTYSESPDWSTGKPDFDNPKVAVNARLFDDFDLDAVPVNMIDGKNLWLEHHHHHH | not failed
MVNEGLIPSLEDEVKRRGVINQLRKIVVRWVKNVAWQHRLPQNQIDATNATILPYGSYGLGVYGSESDIDALCIGPFFASIADFFISLRDMLKSRREVSELHCVKDAKVPLIRFKFDGILVDLPYAQLRVLSIPNNVDVLNPFFLRDIDETSWKILSGVRANKCILQLVPSLELFQSLLRCVKLWAKRRGVYGNLNGFLGGVHMAILAAFVCGYQPNATLSSLLANFFYTFAHWQWPTPVVLLEDTYPSTGAPPGLMPIQLPCGSHQYCNSTITRSTFYKIVAEFLLGHNLTKDYLKLNFSWKDLFELYPYANTYTWFTKIHLSAANQEDLSDWVGWVKSRFRCLLIKIEEVYGICDPNPTEYVETYTKQPNIVFYWGLQLRTINVSDIESVKIDFLKNVNSGSFRGTVGRIQLTLVKASQLPKNGECGSNNRSKKVTKTCWRIREDKQCNNVPVYSKHLPGYVVGYQKMVNREADGMEVKC | failed
MVNQQEEINLSVALVTRNRPDSLERCLKSLRDQKVQPFEVVVSDDSDDLYKSSTKEIAQKWGCRYIDGPKRGLYANRNYVALACYGTHIRTMDDDHEFPEQHIEVCLNAIQSDPSSIWIIGEYSPTSSIENAPHPCPGQLHPRGFSFYPKDTQNCWAIADGASIYPKKIFASGLRFVEYYKFGASYLEWGSRLYYLSYRIRHLDSTYIIHHFNPKARSFSDQEMDQSSRFFAMLCHSFLYQSTFKNKCLFSYEILKQFILDPKLTIKCIINSWSNFELFSRSFCALEHHHHHH | failed
MVNRCFFFNRRICFMELFLLRHGKPDIRRSMAIRSVDMYSWIGEYDAAGILDSPDASTVAASEGKFIVSSPMPRALESVAALGLEPDIIIDELHEAPLPVFNIPLLKLTPLVWAALFRIFWMAGGSGGVETFSSVKIRAKLVSCELDKMAETHGSVLSVGHGFMNALVARELQKAGWKRQKVGPSGYWSGIKLVR | failed
MVPALALGLVIGVLLVVIGVSFAAMIFSGPLAPLATRGAGLTLFGAASLCGFLAVSSSFRSAISTPQDAPVAVLATMGVPVVAAMGMSDPNATFATMLAAMSIATLATGIALMAIGHFRLTRFFRFMPYPVVGGFLAGGGWMLVKGGISVMSSLSLNVESLPMLFESVHIWKWSPGVLYAISLWLVLKRWSHFLILPCSIVMVTAAYYVAFHILAISLADARAAGILLSGVPSSGLWPAFSISDLQTVRWDIVFDQTPIMFTVVLVTMMGLLLNISGLELGSGTDIDFDREFRNAGLANTLGGLGGSAPGSHTLSLSLLCSSSGAYTRLAGIITASVIAAVLFMGGSVLEYFPLPVLGGLLVFLGIDIMDSWLRATRRRLPLSDYLVLCVIFLVICFSGFLEGVAVGLVITVVLFIIRLSKVDIIHDSFTGLTLHSRVNRSIPQRTILQQHGERIRGYRLSGYLFFGSASLLVETLKQELRKTPQPWCILLDFKNVSGFDISAANAFQRFISSAHAEHVRIVLTETSPRFISMLQRILPIESIDNLVTAQDIDRGLEACEEAILTEYTERTAQQANAADMLFEQSVDDMMAHLDRQILFEALVEELRPWVQECHYEGETLLVEKGKTQQGLQMLVWGSATATDGDGGTRLAHLRAGDVLVPQAAFAPFVAREHIMADSPCRTVLLTAQARLLMEQENPDLALRLDRYVISSWKA | failed
MVQIIFDSKTGNVQRFVNKTGFQQIRKVDEMDHVDTPFVLVTYTTNFGQVPASTQSFLEKYAHLLLGVAASGNKVWGDNFAKSADTISRQYQVPILHKFELSGTSKDVELFTQEVERVVTKSSAKMDPVK | not failed
MVQTPSKPITLDEFLKLPETEPASEYIEGKIIQKPMPQGKHSAIQSECVSVINSVVKPQRIARAFLELRCTFGDHSTVPDISVFIWSRIPREENGEIANIFLIAPDWTIEILSPDQSQTKVTKNILHCLKHGTQMGWLIDPDEQTVFVYRPQQETEVFDEPDALVPVPSFASELHLSIKDLFSWLL | not failed
MVQVEKGHVAVVFLNDPERRNPLSPEMALSLLQALDDLEADPGVRAVVLTGRGKAFSAGADLAFLERVTELGAEENYRHSLSLMRLFHRVYTYPKPTVAAVNGPAVAGGAGLALACDLVVMDEEARLGYTEVKIGFVAALVSVILVRAVGEKAAKDLLLTGRLVEAREAKALGLVNRIAPPGKALEEAKALAEEVAKNAPTSLRLTKELLLALPGMGLEDGFRLAALANAWVRETGDLKEGIRAFFEKRPPRF | not failed
MVRISNMQFEVIENVKDGWNEEAFVERYSDVLNKYDYIVGDWGYNQLRLRGFFDDQNKKSTYDKKISTLQDYLYEYCNFGCAYFVVKRVKTESLEHHHHHH | failed
MVRKSIDRSTAAEITRGIGNVFADLGMPDAEERQTKLRLAYALNAVIDRARLSQAAAAARLGINQPKVSALRNYKLEGFSVERLMTLLNALDQDVEIVIRKKPRSRAAARISVVAA | not failed
MVRLIKTETVISVLMGHFIKKLLFILLFVGVLIAPANAQNEKNMYSYKKIGNKYIVSINNHTEIVKALNAFCKEKGILSGSINGIGAIGELTLRFFNPKTKAYDDKTFREQMEISNLTGNISSMNEQVYLHLHITVGRSDYSALAGHLLSAIQNGAGEFVVEDYSERISRTYNPDLGLNIYDFERLEHHHHHH | failed
MVRVDQNLFNEVMYLLDELSQDITVPKNVRKVAQDSKAKLSQENESLDLRCATVLSMLDEMANDPNVPAHGRTDLYTIISKLEALSKS | not failed
MVRYPLEPVLSIKKDRVDRAEKVVKEKRRLLELEQEKLRERESERDKVKNHYMQKIRQLREQLDDGTTSDAILKMKAYIKVVAIQLSEEEEKVNKQKENVLAASKELERAEVELTKRRKEEEKTRLHKEEWMKEALKEEARQEEKEQDEMGQLLHQLHKQKQRESGEN | failed
MVSANTKPLSEFKTGEFVQIEKIQLEGTMKRRLLDLGFIPGATIKVLQRSPLGDPVAYQVSNTTIALRKEESSLIFGVLIGDDFRLEHHHHHH | not failed
MVSAPASASSSPASSSFQSFFWQAAARPRAEPKRQALKRITLMTTDKTSPYEIHDDRFRHLIVGNAELEELYSGCRWAEGPVWFADLNCLLFSDIPNERMLRWVPDGGISVFRQPSNFTNGNTRDRQGRLVSCEHGGRRVTRTEVDGSITVLADSYGGKRLNSPNDVVVKSDGSVWFTDPTYGILSDYEGYKAEPEQKTRNVYRLDPATGKIDIAIDDFVQPNGLAFSPDETKLYVADSSYSHDISRPRHIRVFDVVDGVRLANGREFCNLDNGLPDGFRLDTAGNLWTSAGDGVHCFAPDGRLIGKIKVPQTVANLTFGGPKKNRLFITATKSLYSVYVAATGAQTPLEHHHHHH | not failed
MVSDADASTSSSSIDIMPSANIQNDVPEPSVHTSHRRTRKPAYLQDYYCHSVASLTIHDISQFLSYEKVSPLYHSFLVCIAKAKEPSTYNEAKEFLVWCGAMDDEIGAMETTHTWEICTLPPNKKPIGCKWVYKIKYNSDGTIERYKARLVAKGYTQQEGIDFIETFSPVCKLTSVKLILAISAIYNFTLHQLDISNAFLNGDLDEEIYMKLPPGYAARQGDSLPPNAVCYLKKSIYGLKQASRQWFLKFSVTLIGFGFVQSHSDHTYFLKITATLFLCVLVYVDDIIICSNNDAAVDELKSQLKSCFKLRDLGPLKYFLGLEIARSAAGINICQRKYALDLLDETGLLGCKPSSVPMDPSVTFSAHSGGDFVDAKAYRRLIGRLMYLQITRLDISFAVNKLSQFSEAPRLAHQQAVMKILHYIKGTVGQGLFYSSQAEMQLQVFSDASFQSCKDTRRSTNGYCMFLGTSLISWKSKKQQVVSKSSAEAEYRALSFATDEMMWLAQFFRELQLPLSKPTLLFCDNTAAIHIATNAVFHERTKHIESDCHSVRERSVYQATLSYSFQAYDEQDGFTEYLSPILRGTIMYIVSMFGLAGLEALICFIFLFLFSFLTSFKASAQNPFYLNHDCPNRTTYSSNSTYSTNLKTLLSSFASRNASYSTGFQNIRAGQTPDRVTGLFLCRGDLSPEVCSNCVAFSVNESLTRCPNQREAVFYYEECILRYSHKNFLSTVTYEGELIMRNPNNISSIQNQRDQFIDLVQSNMNQAANEAANSSRKFSTIKTELTSLQTLYGLVQCTPDLARQDCFSCLTSSINRMMPLFRIGARQFWPSCNSRYELYAFYNETAIGTPSPPPLFPGSTPPLTSPSIPGKSGNSTVLVVAIVVLAVLLFIALVGYCFLAQRTKKTFDTASASEVGDDMATADSLQLDYRTIQTATNDFAESNKIGRGGFGEVYKGTFSNGKEVAVKRLSKNSRQGEAEFKTEVVVVAKLQHRNLVRLLGFSLQGEERILVYEYMPNKSLDCLLFDPTKQTQLDWMQRYNIIGGIARGILYLHQDSRLTIIHRDLKASNILLDADINPKIADFGMARIFGLDQTQDNTSRIVGTYGYMAPEYAMHGQFSMKSDVYSFGVLVLEIISGRKNSSFDESDGAQDLLTHTWRLWTNRTALDLVDPLIANNCQNSEVVRCIHIGLLCVQEDPAKRPTISTVFMMLTSNTVTLPVPRQPGFFIQSSPVKDPTDSDQSTTTKSTPASIDDELITDLYPR | failed
MVSGKVLKEPASGFMFMDTLDRGVKGYAGGWLVRGKRYNCIVETGAGAAVPLWLAGLKQAGIPLESIRWILLTHVHLDHAGGAGELLRHLPNARIGIHPLGVRHILDPQRLLSHAKVVWEKDFDLLGPMLPAPAERVVELGDGEIIEIDDVRRIKVLYTPGHTSHHVAFFEESTRGVFSGDALGAFFRGKHPFGEYVSMPGVSPPKGDIPAYVQSVERIAKLSPRRIYATHFGLWEPAMPYILSATSQIITISDLCRDVFYGGGGLQDFLSRAATLLASVRQSTRGQVELEKNYFSMAKAVWNYVVAEKGGESSPG | failed
MVSKRLTGAVALLFLAAGAAGAAGLTVKEQLGKDIFFDTNLSINGNQSCADCHAPEAGWTGPTSEVNAHGAVYEGSIAGRFGNRKPPSSAYATTAPILKYIRQGGGMFVGGNFWDGRATGEKLGNPAADQAQGPFLNPLEQGLPDSACVVHRVCTATYGTAMETLWPGSCAIAWPADVAAACATEGTVVNLDAPNRAASDLAYDYIALAIAAYEGSTESNAFTSKYDAFLAGKAFLTPEERRGLTLFNGKAKCARCHVNTGRAPLFTDYTYDNLGVPRNSENPFYESAFNPLGINWIDQGLGGFLASRIDYSRFATANLGKHKVPTLRNVDKKTSPDFVKAFGHNGYFKSLKEIVHFYNTRDVLPTCAPGSPGEKVTCWPEPELALTMNTTELGNLKLSDAEEDALVAFMKTLTDGYQP | failed
MVSNIDHKAMEALLRGQGCANNLKILLENGEISSVSTEPLIHTILDSFSLALSFMDSPNHPPYHESSSHNMASHMSRRSSKQKLCVAEGLVNYNHDSRTMCPNDGFTWRKYGQKTIKASAHKRCYYRCTYAKDQNCNATKRVQKIKDNPPVYRTTYLGKHVCKAFAVHDDTYSSTMIRFDQVVPEPIMPQLTTIDHQVITVEENSAEHIMNQECDINDYLVDDDPFWASQFPPFPSSDTMFLENISAFD | failed
MVSNSSITFKEFVDYWFEAYASTAVKPSTQKRYRQLLKPALRAIGNKPLNKVKPLDIQNIYIALAGTQSNCTILKLHRLLHEIFKHAQMWEYISDNPVKKVVPPTPEKKVFDLEHHHHHH | failed
